Assay results from US20210008109A1, “METHODS OF TREATING HEMATOLOGICAL DISORDERS, SOLID TUMORS, OR INFECTIOUS DISEASES USING NATURAL KILLER CELLS” (CELGENE CORPORATION, priority 2014, published 2021).

Tested on: Daudi cells
Experiment: Antibody-dependent cellular cytotoxicity (ADCC) of PiNK cells with rituximab, PKH26/TO-PRO-3 FACS
Type: cell-based
Settings: Daudi cells pre-incubated 1 h with rituximab, compared to human IgG isotype control; E:T 50:1, 20:1, 10:1 and 2.5:1; 4 h at 37° C.
Protocol: The experiments presented herein utilize an anti-CD20 antibody, rituximab, and Daudi cells (Cat #: CCL-213, ATCC), which are high expressers of CD20. Daudi cells were harvested and labeled with PKH26 (Cat #: PKH26GL-1KT, Sigma-Aldrich) (Ferlazzo, G., et al., J Immunol, 172: 1455-1462 (2004); Lehmann, D., et al., Stem Cells Dev, 21: 2926-2938 (2012)), whose lipophilic aliphatic residue inserts into cell plasma membrane. The cells were washed and incubated with rituximab (and human IgG as an isotype control) at different concentrations as indicated in FIG. 1 for 1 h at room temperature. After washing three times, 10^4 target cells were placed in 96-well U-bottom tissue culture plates and incubated with cultured NK cells at various effector-target (E:T) ratios (50:1, 20:1, 10:1 and 2.5:1) in 200 μl RPMI 1640 supplemented with 10% FBS. The Cultures were incubated for 4 h at 37° C. in 5% CO2. After incubation, cells were harvested and TO-PRO-3 (Catalog #T3605, Invitrogen), a membrane-impermeable DNA stain, was added to cultures to 0.25 μM final concentration followed by FACS analysis using BD FACSCanto II. Cytotoxicity (“% cytotoxicity” in FIG. 1) is expressed as percentage of dead cells (PKH26^+TO-PRO-3^+) within the total PKH26^+ target tumor cells, subtracted by spontaneous cell death.

rituximab
% cytotoxicity of PiNK cells (dead PKH26+TO-PRO-3+ cells within total PKH26+ target cells, minus spontaneous cell death): increases the cytotoxicity
